Experimental data reported in patent US20240092907A1 (Five Prime, published 2024).
Substitutions are numbered along the chain they refer to.

How the values were obtained:
[1] = molecular target: avidin (ThermoFisher Scientific catalog #21128) (UniProt P02701 25-152); test: SPR 25C, Ab on Protein A, pH 6.0 and 7.4
Protocol: (§1) Protein A (ThermoFisher Scientific catalog #21181) was diluted to 20 ug/ml in 10 mM sodium acetate pH 4.5 and immobilized onto flow cells of a CM3 biosensor following the manufacturer's amine coupling protocol (GE Healthcare), targeting 800 RU immobilization density of Protein A per flow cell. SPR experiments were conducted at 25° C. using PBST (137 mM sodium chloride, 2.7 mM potassium chloride, 10 mM phosphate buffer, 0.05% Tween 20) running buffer at pH 7.4 and 6.0. Antibodies (formatted as IgG1.3 antibodies) were diluted to 50 nM in PBST pH 7.4, and were captured across active biosensor flow cells at 5 ul/min for 60 seconds. […] Two 15 second injections of 10 mM glycine pH 1.5 were used to regenerate the Protein A capture surface between assay cycles. Reference flow cell and 0 nM blank-subtracted sensorgrams were inspected using Biacore® T200 Evaluation Software v.2.0.

[2] = molecular target: BSA (Calbiochem catalog #126593) (UniProt P02769 25-607); test: SPR 25C, Ab on Protein A, pH 6.0 and 7.4
Chain of BSA (Calbiochem catalog #126593) (P02769 25-607 limits assumed): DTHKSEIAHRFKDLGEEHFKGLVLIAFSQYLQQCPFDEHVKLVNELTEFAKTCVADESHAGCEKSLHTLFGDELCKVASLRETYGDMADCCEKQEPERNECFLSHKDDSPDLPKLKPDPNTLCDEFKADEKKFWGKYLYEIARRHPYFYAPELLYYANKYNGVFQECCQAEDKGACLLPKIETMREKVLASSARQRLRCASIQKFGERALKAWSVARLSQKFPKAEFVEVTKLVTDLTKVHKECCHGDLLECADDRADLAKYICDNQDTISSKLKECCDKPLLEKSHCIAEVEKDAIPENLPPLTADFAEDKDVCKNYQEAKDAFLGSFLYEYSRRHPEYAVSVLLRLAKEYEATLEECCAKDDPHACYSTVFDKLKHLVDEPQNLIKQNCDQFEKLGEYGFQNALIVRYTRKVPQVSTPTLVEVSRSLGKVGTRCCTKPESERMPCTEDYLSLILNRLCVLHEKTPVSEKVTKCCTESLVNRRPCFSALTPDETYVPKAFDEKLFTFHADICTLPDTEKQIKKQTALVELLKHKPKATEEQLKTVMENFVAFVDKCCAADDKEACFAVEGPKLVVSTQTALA
Protocol: as §1

[3] = molecular target: T1, recombinant hVISTA ECD multimer (monobiotinylated hVISTA ECD on PE-streptavidin dextramers) (human, UniProt Q9H7M9 33-194, limits assumed, monobiotinylated); test: flow cytometry, blocking of VISTA multimer binding to activated human CD4+ T cells, pH 6.0
T1 construct: Loaded at a 28:1 molar ratio onto PE-conjugated streptavidin dextramers; also called VISTA multimer; hVISTA-loaded dextramers
T1 sequence (looked up): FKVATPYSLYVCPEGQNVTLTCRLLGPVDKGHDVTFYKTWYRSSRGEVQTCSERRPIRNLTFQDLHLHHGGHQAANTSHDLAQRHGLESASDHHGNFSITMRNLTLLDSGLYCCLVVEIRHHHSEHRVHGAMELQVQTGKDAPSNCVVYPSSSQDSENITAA
Protocol: As a control, activated CD4+ T cells were stained with PE-conjugated streptavidin dextramers that were not loaded with hVISTA. The stained cells were washed with HBSS+ MES and acquired on a flow cytometer. Data were analyzed using FlowJo™ software (BD Biosciences). […] Left, from darker gray to lighter, the filled histograms depict binding at pH 7.0, 6.5, 6.4, 6.3, 6.1, and 6.0. Some histograms are labeled with their corresponding pH. Non-VISTA control multimer binding at pH 6.0 is shown as the unfilled histogram. Right, graphed PE mean fluorescence intensities (MFI) of CD4+ T cells stained with hVISTA-loaded dextramers (blue circles) or with non-loaded dextramers (triangles) at various pH.
This blocking assay was performed as described in Example 4.

Chain of avidin (ThermoFisher Scientific catalog #21128) (P02701 25-152 limits assumed): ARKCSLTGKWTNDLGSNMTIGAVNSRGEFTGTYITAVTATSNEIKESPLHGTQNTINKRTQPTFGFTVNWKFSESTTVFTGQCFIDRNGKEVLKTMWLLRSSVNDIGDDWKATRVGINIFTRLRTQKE

B1: P1-061029.IgG1.3 (antibody)
heavy: EVQLVESGGGLVQPGKSLRLSCAASGFTLDDYAMHWVRQAPGKGLEWVSGINWNSANIGYADSVKGRFTISRDNAKNSLYLQMNSLRTEDTALYYCAKVPGYSGGWIDAFDVWGQGTMVTVSSASTKGPSVFPLAPSSKSTSGGTAALGCLVKDYFPEPVTVSWNSGALTSGVHTFPAVLQSSGLYSLSSVVTVPSSSLGTQTYICNVNHKPSNTKVDKRVEPKSCDKTHTCPPCPAPEAEGAPSVFLFPPKPKDTLMISRTPEVTCVVVDVSHEDPEVKFNWYVDGVEVHNAKTKPREEQYNSTYRVVSVLTVLHQDWLNGKEYKCKVSNKALPAPIEKTISKAKGQPREPQVYTLPPSREEMTKNQVSLTCLVKGFYPSDIAVEWESNGQPENNYKTTPPVLDSDGSFFLYSKLTVDKSRWQQGNVFSCSVMHEALHNHYTQKSLSLSPG
light: not shown
notes: IgG1.3; also called parent; hIgG1.3f
Q: Which results are given for B1?
A: binding result [1]: no binding (tested: 100-10 nM; binding defined as >10 RU); binding result [2]: no binding (tested: 100-10 nM; binding defined as >10 RU); IC50 (read off the curve) [3]: ~0.04 µg/mL

B2: P1-068761.IgG1.3 (antibody)
heavy: B1 heavy with D30E, Y32E, A56E, N57E, G104H, F110E
light: not shown
notes: IgG1.3; also called hIgG1.3f
Q: Does B2 bind [1]?
A: no binding (tested: 100-10 nM; binding defined as >10 RU)

Q: Does B2 bind [2]?
A: no binding (tested: 100-10 nM; binding defined as >10 RU)

B3: P1-068767.IgG1.3 (antibody, V domains shown)
VH: EVQLVESGGGLVQPGKSLRLSCAASGFTLEDYAMHWVRQAPGKGLEWVSGIDWNSENIGYADSVKGRFTISRDNAKNSLYLQMNSLRTEDTALYYCAKVPGYSGGWIDAEDDWGQGTMVTVSS
VL: not shown
notes: IgG1.3; also called hIgG1.3f; printed once as P1-068768
Q: Which results are given for B3?
A: binding result [1]: no binding (tested: 100-10 nM; binding defined as >10 RU); binding result [2]: no binding (tested: 100-10 nM; binding defined as >10 RU)
